Test results: article PMC11826091

Assays:
[1] = test system: T1, MtvA (Pseudomonas aeruginosa PAD8 (plasmid pPAD8)), ORF:f8ca6192; test: EMSA; conditions: pH 8.0, 25 min at room temperature
T1 sequence: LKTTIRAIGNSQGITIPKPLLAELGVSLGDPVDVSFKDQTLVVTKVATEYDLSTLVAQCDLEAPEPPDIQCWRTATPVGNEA

[2] = test system: MtvA;MtvT (Pseudomonas aeruginosa PAD8 (plasmid pPAD8);Pseudomonas aeruginosa PAD8 (plasmid pPAD8)), ORF:f8ca6192+ORF:03226125; test: EMSA; conditions: pH 8.0, 25 min at room temperature

Row | Sequence | binding [1] | binding [2]
1 | CGGAAAACCTTAGACCCACTGAAGACCCGGCGTTCGCCGGGTTTTTTGTGTCTGCTCTTGTAAGCATTAACTTACACGGCGTGTGAGCCTAAGTAGATAAATGCCCGGGAGGTTTGCCAAAAACGCTCGGTGAATTTAAGTAACTTATTGAAATTAAAGGAATATATTTTTCTAAAATGGCTGCCGAAGAAGCTTCGCTGGGTTTTCTGGCAGGTTGCGGGAGCACTGGGAATCGCTAATATCACTCCTG (double strand) [P-rsmZ] | binds | binds
2 | GCCGTCTCCGCGCGGGAGGAAAAGGCCACAGCGATGTGGCTTTTTTCTTAAAAGAAAAGTCTCTCAGTGACAAAAGCGATGCATAGCCCGGTGCTAGCATGCGCTGAGCTTTAGGAGGCGCCCCC (double strand) [P-exsC] | no binding | no binding
3 | GCTGGGAAGGCTCGCGATGATGAGGGGACTGGCCACTGTAGCGGGCCCGGCGCAGATCATCTTGACGCACGGCAAGCTCCCGGCGGCTGGGTGTTGCCGTCGGTCCGGCGAGCGGAACTATTACAGCGTGTAAGCCAAGGCTTACAAACGGCGGTGGTTTTGGCTGCTTTCTCCCCCTCGCAGAGATGCGTAATCTTCAAACCGTCAGGACATTGCGCAGG (double strand) [P-rsmY] | binds | binds
4 | GTACGATCATCTTCACTTCCTCCAAATAGGAAGCTGAAGAATTTATGCAAATTTCATAATTTTATAACTAGCAAATGAGATAGATTTCGGTGAACCCGGACCCTTGCTAGGCTCGAAGAAACGTCCGAAAAGATCAGAGCA (double strand) [P-lasI] | no binding | no binding
5 | TATGGATCCCGTATCTGCTCGGTTGGTTGATGGACAAAGCGCTTATCAAAAGGAAAACAACGCTTTGGCGCACGACTATACAGCAACGAAAGTCGAACGATAAGGCAATGATAGTCAGAAGTGACCCACCACTCAACACCAACCCACGCCCATATAGGTCTACGGTGACCTAAAACCTCGCTCGCCCTCCAAATAGGTCACCTGTGACCCTCGAGTAA (double strand) [P-dotD] | binds | binds
6 | TTACTCGAGAAGTTTGGAATAACCAGAGATATGCTCGTCAACAACGAATGTTTGAACATATTTATCGGAACTTATTACATTCAGCGTAGCGTGCTGGGGAGTGATGATTTTTGGAAGGGCGTTGGTAATTACCACTCTCGCACGCCCGACAAAAACTACCGGTACAAACATCGTGTGTGGAACAGTCTCAAAGAAGTCCGGGGGCAGCAGGATCCATA (double strand) [P-icmP] | binds | binds
7 | TTACTCGAGTGATGGCGATCGCCGCCGACGATGCTTCGTTTGATCACAGCTGCGTGGTCAACTTCAAATCGGCCGCCTGAGGGCGGCCCTACCCATAGATCCTGATTCCTCAACAAGAAAAAGCGACGTGTCCATTCGTTGACACTAAAGGTATTTTTGCGTATTTTTCGACATTATCATCTAATGAAAGTCGTTGGGGTTTGTTCGGTGGATCCATA (double strand) [P-icmL] | binds | binds
